T1: 生物素化的CD318蛋白 (human, UniProt Q9H5V8 30-667, biotin on the avi-tag)
T1 construct: Used 1:200 to stain CAR-T cells; also called 生物素-标记的CD318抗原; biotinylated recombinant human CD318-avi-his
T1 sequence: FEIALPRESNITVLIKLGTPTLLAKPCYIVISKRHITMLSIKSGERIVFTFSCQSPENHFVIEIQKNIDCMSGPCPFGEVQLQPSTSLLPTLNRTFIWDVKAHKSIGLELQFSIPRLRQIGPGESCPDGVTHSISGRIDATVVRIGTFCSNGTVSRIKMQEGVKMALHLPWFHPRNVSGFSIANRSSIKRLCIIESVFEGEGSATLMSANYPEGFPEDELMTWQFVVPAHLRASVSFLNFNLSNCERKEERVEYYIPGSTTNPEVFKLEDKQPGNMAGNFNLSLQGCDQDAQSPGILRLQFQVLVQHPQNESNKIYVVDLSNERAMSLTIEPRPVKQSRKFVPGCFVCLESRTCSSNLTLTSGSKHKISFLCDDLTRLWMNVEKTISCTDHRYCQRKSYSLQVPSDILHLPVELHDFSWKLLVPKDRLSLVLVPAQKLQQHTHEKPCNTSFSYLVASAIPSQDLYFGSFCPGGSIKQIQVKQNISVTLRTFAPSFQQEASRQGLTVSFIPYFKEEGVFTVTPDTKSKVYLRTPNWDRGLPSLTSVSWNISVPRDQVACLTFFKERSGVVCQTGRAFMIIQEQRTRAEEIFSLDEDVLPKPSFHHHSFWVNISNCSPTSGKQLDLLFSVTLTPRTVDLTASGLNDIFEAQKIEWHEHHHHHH

T2: 重组人CD318-avi-his抗原蛋白 (human, UniProt Q9H5V8 30-667)
T2 construct: Coated on ELISA plates at 100 ng per well; also called 重组人CD318蛋白; CDCP1
T2 sequence: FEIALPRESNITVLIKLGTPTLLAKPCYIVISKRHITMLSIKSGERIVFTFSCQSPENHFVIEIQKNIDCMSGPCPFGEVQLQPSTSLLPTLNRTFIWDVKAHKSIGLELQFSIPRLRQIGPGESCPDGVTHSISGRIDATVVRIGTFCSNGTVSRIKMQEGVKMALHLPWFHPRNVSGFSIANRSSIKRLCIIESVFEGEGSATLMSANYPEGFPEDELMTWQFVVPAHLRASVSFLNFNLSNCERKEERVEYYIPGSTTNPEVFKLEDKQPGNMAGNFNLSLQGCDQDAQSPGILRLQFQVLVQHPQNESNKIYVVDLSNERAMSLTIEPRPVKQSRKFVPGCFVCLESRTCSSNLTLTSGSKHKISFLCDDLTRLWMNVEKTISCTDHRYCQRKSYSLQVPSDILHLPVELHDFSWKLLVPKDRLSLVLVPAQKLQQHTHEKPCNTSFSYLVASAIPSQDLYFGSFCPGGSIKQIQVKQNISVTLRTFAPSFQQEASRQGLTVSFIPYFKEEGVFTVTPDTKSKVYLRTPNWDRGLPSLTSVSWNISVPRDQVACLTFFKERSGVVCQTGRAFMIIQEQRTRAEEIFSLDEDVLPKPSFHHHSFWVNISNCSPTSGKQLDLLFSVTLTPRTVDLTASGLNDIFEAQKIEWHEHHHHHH

B1: 4A8-BBz (other)
chain: EVQLVESGGGLVQPGGSLRLSCAASGFTSDYYAIGWFRQAPGKEREGVSCINNSDGSTYYADSVKGRFTISRDNAKNTVYLQMNSLKPEDTAVYYCAADDDVVAGFSCASYRYLELWGQGTLVTVSSTTTPAPRPPTPAPTIASQPLSLRPEACRPAAGGAVHTRGLDFACDIYIWAPLAGTCGVLLLSLVITLYCRFSVVKRGRKKLLYIFKQPFMRPVQTTQEEDGCSCRFPEEEEGGCELRVKFSRSADAPAYQQGQNQLYNELNLGRREEYDVLDKRRGRDPEMGGKPRRKNPQEGLYNELQKDKMAEAYSEIGMKGERRRGKGHDGLYQGLSTATKDTYDALHMQALPPR
notes: Chimeric antigen receptor: CD8 signal peptide, VHH, CD8a hinge, CD8a transmembrane, 4-1BB, CD3zeta; also called 4A8 CD318 CAR
B2: 4A10-BBz (other)
chain: EVQVVESGGGLVQAGGSLRLSCVASGSNDSMTAMGWYRQAPGKQREMVAVSTSTGTAIYGDSMKGRFTIARDNAKNTVYLQMNSLNFEDTAVYYCRNFIRGRDYWGQGTQVTVSSTTTPAPRPPTPAPTIASQPLSLRPEACRPAAGGAVHTRGLDFACDIYIWAPLAGTCGVLLLSLVITLYCRFSVVKRGRKKLLYIFKQPFMRPVQTTQEEDGCSCRFPEEEEGGCELRVKFSRSADAPAYQQGQNQLYNELNLGRREEYDVLDKRRGRDPEMGGKPRRKNPQEGLYNELQKDKMAEAYSEIGMKGERRRGKGHDGLYQGLSTATKDTYDALHMQALPPR
notes: Chimeric antigen receptor: CD8 signal peptide, VHH, CD8a hinge, CD8a transmembrane, 4-1BB, CD3zeta; also called 4A10 CD318 CAR
B3: 4B7 (VHH)
VHH: EVQLVETGGGLVQPGGSLRLSCAASGFTLDYYAIGWFRQAPGKEREGVSCITSSDDNTYYADSVKGRFTISRDNAKNTVYLQMNSLKPEDTAVYYCATDALSIRRSSCQLGPTAYFGMDYWGKGTLVTVSS
notes: Tested as a periplasmic extract from TG1 (pcomb3X phagemid) and detected with anti-HA HRP; also called CD318 VHH 4B7
B4: 4A8 (VHH)
VHH: EVQLVESGGGLVQPGGSLRLSCAASGFTSDYYAIGWFRQAPGKEREGVSCINNSDGSTYYADSVKGRFTISRDNAKNTVYLQMNSLKPEDTAVYYCAADDDVVAGFSCASYRYLELWGQGTLVTVSS
notes: Tested as a periplasmic extract from TG1 (pcomb3X phagemid) and detected with anti-HA HRP; also called CD318 VHH 4A8
B5: 4A4 (VHH)
VHH: QVQLVESGGGLVQAGGSLRLSCAASGSIFSGSAMGWYRQAPGKQRELVVVESSGGSTNYADSVKGRFTISRDNAKNTVYLQMNSLKPEDTAVYYCRGFYYGMGYWGKGTQVTVSS
notes: Tested as a periplasmic extract from TG1 (pcomb3X phagemid) and detected with anti-HA HRP; also called CD318 VHH 4A4
B6: 4A10 (VHH)
VHH: EVQVVESGGGLVQAGGSLRLSCVASGSNDSMTAMGWYRQAPGKQREMVAVSTSTGTAIYGDSMKGRFTIARDNAKNTVYLQMNSLNFEDTAVYYCRNFIRGRDYWGQGTQVTVSS
notes: Tested as a periplasmic extract from TG1 (pcomb3X phagemid) and detected with anti-HA HRP; also called CD318 VHH 4A10
B7: 4B2 (VHH)
VHH: EVQVVESGGGLVQAGGSLRLSCVASGSSDSMNAMGWYRQAPGKQRETVAVSTSVGTAIYGDSVKGRFTISRDNAKNTVYLQMNSLNFEDTAVYYCRIFSRGRDYWGQGTQVTVSS
notes: Tested as a periplasmic extract from TG1 (pcomb3X phagemid) and detected with anti-HA HRP; also called CD318 VHH 4B2
B8: 4G2 (VHH)
VHH: QVQLVESGGGLVQAGGSLRLSCAAFGNKYDFNTMGWYRQGPGKQRELVATIAAGGRTNYADSAKGRFTISRDNAKNTVYLQMNSLKPEDTAVYYCSAERVKNHYADYALDDYWGQGIQVTVSS
notes: Tested as a periplasmic extract from TG1 (pcomb3X phagemid) and detected with anti-HA HRP; also called CD318 VHH 4G2

Biological target: T1, 生物素化的CD318蛋白
Assay: flow cytometry, CAR-T cells stained with biotinylated CD318 antigen and PE-streptavidin

| Binder | binding result |
| --- | --- |
| B1 | binds |
| B2 | binds |

Biological target: T2, 重组人CD318-avi-his抗原蛋白
Assay: ELISA, coated recombinant human CD318, periplasmic extract, anti-HA HRP

| Binder | binding result |
| --- | --- |
| B3 | binds |
| B4 | binds |
| B5 | binds |
| B6 | binds |
| B7 | binds |
| B8 | binds |
